Assay [1] concerns the target T1, CD40 (UniProt P25942 21-193).
T1 construct: also called biotinylated CD40; CD40 antigen
The assay is described as follows: Octet BLI; biotinylated CD40 on streptavidin sensor.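 Further: octet RED96 biolayer interferometry, 300 s association then 300 s dissociation in kinetic buffer, buffer-blank referenced, fitted with a 1:1 Langmuir binding model.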
Protocol: Kinetic measurements were performed using the Octet RED96 platform (ForteBIo). […] Association was followed for 300 seconds followed by dissociation in 1x Kinetic buffer for 300 seconds. Sensor tips were regenerated using 10 mM glycine, pH 1.7. Data generated were referenced by subtracting a parallel buffer blank, the baseline was aligned with the γ-axis, inter-step correlation by alignment against dissociation was performed and the data were smoothed by a Savitzky-Golay filter in the data analysis software (v.9.0.0.14). The processed data were fitted using a 1:1 Langmuir binding model with X2 as a measurement of fitting accuracy.
Binding affinities of all the variants were determined using Octet (Pall ForteBio).

The target of the next assay is T2, EpCAM (UniProt P16422 24-265).
T2 construct: also called biotinylated EpCAM
T2 sequence (looked up): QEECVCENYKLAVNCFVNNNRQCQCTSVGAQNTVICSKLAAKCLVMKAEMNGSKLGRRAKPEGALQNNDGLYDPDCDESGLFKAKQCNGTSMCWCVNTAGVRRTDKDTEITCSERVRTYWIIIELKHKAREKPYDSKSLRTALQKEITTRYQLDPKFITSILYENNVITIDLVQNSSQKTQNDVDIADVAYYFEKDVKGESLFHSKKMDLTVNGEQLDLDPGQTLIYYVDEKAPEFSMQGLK
The assay is described as follows: Octet BLI; biotinylated EpCAM on streptavidin sensor.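 Further: octet RED96 kinetics: 300 s association, then 300 s dissociation in 1x Kinetic buffer, buffer-blank referenced, Savitzky-Golay smoothed, fitted to a 1:1 Langmuir binding model.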

Assay [2] concerns the target T1, CD40. Nature of the assay: dual ELISA: CD40 coated, bsAb titrated, biotinylated EpCAM + streptavidin-HRP; signal needs both targets.
Protocol: (§1) Dual ELISA Plates were coated with 0.5 μg/mL CD40 in PBS over night at 4° C. After washing in PBS/0.05% Tween 20 (PBST), the plates were blocked with PBS/2% BSA for at least 30 minutes at room temperature before being washed again. Samples serially diluted in PBS/0.5% BSA were then added and allowed to bind for at least 1 hour at room temperature. […] Dual complexed bsAb with CD40 and EpCAM were detected with HRP-labelled streptavidin. SuperSignal Pico Luminescent was used as substrate and luminescence signals were measured using Fluostar Optima.
Assay [3] has as its target T1, CD40. The description is as above. The source holds these as a separate data set.
Protocol: as §1
Assay [4] concerns the target T1, CD40. The description is as above. The source holds these as a separate data set.
Protocol: as §1
For assay [5], the target named is T3, 5T4 expressed on CHO cells (UniProt Q13641 32-420, limits assumed).
T3 construct: whole, on cells; also called CHO-5T4; 5T4 expressing CHO cells
T3 sequence (looked up): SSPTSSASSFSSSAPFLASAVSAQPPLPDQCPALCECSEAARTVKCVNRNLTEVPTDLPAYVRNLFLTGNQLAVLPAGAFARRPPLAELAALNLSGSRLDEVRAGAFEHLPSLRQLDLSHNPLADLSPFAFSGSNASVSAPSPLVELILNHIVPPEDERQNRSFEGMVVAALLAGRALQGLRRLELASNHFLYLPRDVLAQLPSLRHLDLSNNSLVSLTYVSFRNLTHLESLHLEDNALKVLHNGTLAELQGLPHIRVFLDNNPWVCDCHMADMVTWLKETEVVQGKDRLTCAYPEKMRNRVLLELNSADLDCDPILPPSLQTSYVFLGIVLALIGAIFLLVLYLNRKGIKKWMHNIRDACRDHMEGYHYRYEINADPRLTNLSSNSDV
Nature of the assay: flow cytometry on CHO cells expressing 5T4, anti-human IgG Fcg-PE; CHOwt cells as control. (A flow cytometer gives signals particle by particle.)
Protocol: Binding to respective targets expressed on cells were evaluated using flow cytometry. I brief, CHO cells modified to express 5T4, B16 cells modified to express CD40 as well as the wildtype CHO and B16 cell lines were incubated with titrated concentrations of RUBY™ bsAbs. Binding of the antibodies was detected using fluorochrome-conjugated anti-human IgG and analyzed using flow cytometry.

Read-outs that look alike come from different tables or passages of the source.

T1 sequence (P25942 21-193 limits assumed): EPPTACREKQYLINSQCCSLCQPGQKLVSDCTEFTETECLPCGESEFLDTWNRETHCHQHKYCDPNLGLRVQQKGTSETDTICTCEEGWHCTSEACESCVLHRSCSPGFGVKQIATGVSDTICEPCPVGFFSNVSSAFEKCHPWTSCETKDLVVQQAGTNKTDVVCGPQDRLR

B1: AM_4115-4131 (bispecific antibody)
heavy 1: not shown
light: DIQMTQSPSSLSASVGDRVTITCRASQSISSYLNWYQEKPGKAPKLLIYAASSLQSGVPSRFSGSGSGTDFTLTISSLQPEDFATYYCQQYGRNPPTFGQGTKLEIKRTVAAPSVFIFPPSDEQLKSGTASVVCYLNNFYPREAKVQWKVDNALQSGNSQESVTEQDSKDSTYSLWSTLTLSKADYEKHKVYACEVTHQGLSSPVTKSFNRGEC
heavy 2: EVQLLEQSGAELVRPGTSVKISCKASGYAFTNYWLGWVKERPGHGLEWIGDIFPGSGNIHYNEKFKGKATLTADKSSSTAYMQLSSLTFEDSAVYFCARLRNWDEPMDYWGQGTTVTVSSASTKGPSVFPLAPSSKSTSGGTAALGCLVKDYFPEPVTVSWNSGALTSGVHTFPAVLQSSGLWSLSSVVEVPSSSLGTQTYICNVNHKPSNTKVDKKVEPKSC
notes: AC_05293 backbone; also called double mutant I126S + Y180W; copies: 2 + 2 + 2
The Kd is the concentration at which binding is half-saturated. Low readings indicate higher affinity, high ones lower affinity. For orientation: koff means a measure of how fast the partners let go of each other. A high value points to a short-lived complex. A word on the kon: it is the rate constant with which the complex forms. The term EC50 (read off the curve) denotes the concentration that produces a half-maximal response. For the molecule B1, in the assay with CD40 [1], the Kd was found to be 0.97 nM, the off-rate (koff) came to 0.00089 s⁻¹ and the kon amounted to 920000 M⁻¹ s⁻¹. In the assay with EpCAM, this molecule came in with a Kd of 7.2 nM, a koff of 0.0013 s⁻¹ and a kon of 180000 M⁻¹ s⁻¹. Further, in the assay with CD40 [2], the “EC50 (read off the curve)” value is ~0.6 nM.

B2: 4115 (bispecific antibody)
heavy 1: not shown
heavy 2: EVQLLEQSGAELVRPGTSVKISCKASGYAFTNYWLGWVKERPGHGLEWIGDIFPGSGNIHYNEKFKGKATLTADKSSSTAYMQLSSLTFEDSAVYFCARLRNWDEPMDYWGQGTTVTVSSASTKGPSVFPLAPSSKSTSGGTAALGCLVKDYFPEPVTVSWNSGALTSGVHTFPAVLQSSGLYSLSSVVEVPSSSLGTQTYICNVNHKPSNTKVDKKVEPKSC
light: DIQMTQSPSSLSASVGDRVTITCRASQSISSYLNWYQEKPGKAPKLLIYAASSLQSGVPSRFSGSGSGTDFTLTISSLQPEDFATYYCQQYGRNPPTFGQGTKLEIKRTVAAPSVFIFPPSDEQLKSGTASVVCYLNNFYPREAKVQWKVDNALQSGNSQESVTEQDSKDSTYSLWSTLTLSKADYEKHKVYACEVTHQGLSSPVTKSFNRGEC
notes: also called single mutant I126S of AC_05293; copies: 2 + 2 + 2
Take B2: the “EC50 (read off the curve)” value in the assay with CD40 [3] was ~0.2 µg/mL.

B3: 4114 (bispecific antibody)
heavy 1: not shown
heavy 2: EVQLLEQSGAELVRPGTSVKISCKASGYAFTNYWLGWVKERPGHGLEWIGDIFPGSGNIHYNEKFKGKATLTADKSSSTAYMQLSSLTFEDSAVYFCARLRNWDEPMDYWGQGTTVTVSSASTKGPSVFPLAPSSKSTSGGTAALGCLVKDYFPEPVTVSWNSGALTSGVHTFPAVLQSSGLYSLSSVVEVPSSSLGTQTYICNVNHKPSNTKVDKKVEPKSC
light: DIQMTQSPSSLSASVGDRVTITCRASQSISSYLNWYQEKPGKAPKLLIYAASSLQSGVPSRFSGSGSGTDFTLTISSLQPEDFATYYCQQYGRNPPTFGQGTKLEIKRTVAAPSVFIFPPSDEQLKSGTASVVCYLNNFYPREAKVQWKVDNALQSGNSQESVTEQDSKDSTYSLWSTLTLSKADYEKHKVYACEVTHQGLSSPVTKSFNRGEC
notes: also called single mutant I126Q of AC_05293; copies: 2 + 2 + 2
As for B3, the “EC50 (read off the curve)” value in the assay with CD40 [4] is ~0.1 µg/mL.

B4: AC_05370 (bispecific antibody, human IgG1, kappa, L234A L235A)
heavy 1: not shown
light: DIQMTQSPSSLSASVGDRVTITCRASQSISSYLNWYQEKPGKAPKLLIYAASSLQSGVPSRFSGSGSGTDFTLTISSLQPEDFATYYCQQTYGYLHTFGQGTKLEIKRTVAAPSVFIFPPSDEQLKSGTASVVCYLNNFYPREAKVQWKVDNALQSGNSQESVTEQDSKDSTYSLWSTLTLSKADYEKHKVYACEVTHQGLSSPVTKSFNRGEC
heavy 2: EVQLLESGGGLVQPGGSLRLSCAASGFTFSSYAMSWVREAPGKGLEWVSGIGSYGGGEYYADSVKGRFTISRDNSKNTLYLQMNSLRAEDTAVYYCARYVNFGMDYWGQGTLVTVSSASTKGPSVFPLAPSSKSTSGGTAALGCLVKDYFPEPVTVSWNSGALTSGVHTFPAVLQSSGLYSLSSVVEVPSSSLGTQTYICNVNHKPSNTKVDKKVEPKSC
notes: AC_05332 with the mutation in the VH of chain H2; also called T65E mutant of AC_05332; copies: 2 + 2 + 2
As to B4, the “EC50 (read off the curve)” value in assay [5] is ~9 nM.

B5: AM_4115-4126 (bispecific antibody)
heavy 1: not shown
heavy 2: EVQLLEQSGAELVRPGTSVKISCKASGYAFTNYWLGWVKERPGHGLEWIGDIFPGSGNIHYNEKFKGKATLTADKSSSTAYMQLSSLTFEDSAVYFCARLRNWDEPMDYWGQGTTVTVSSASTKGPSVFPLAPSSKSTSGGTAALGCLVKDYFPEPVTVSWNSGALTSGVHTFPAVLQSSGLISLSSVVEVPSSSLGTQTYICNVNHKPSNTKVDKKVEPKSC
light: DIQMTQSPSSLSASVGDRVTITCRASQSISSYLNWYQEKPGKAPKLLIYAASSLQSGVPSRFSGSGSGTDFTLTISSLQPEDFATYYCQQYGRNPPTFGQGTKLEIKRTVAAPSVFIFPPSDEQLKSGTASVVCYLNNFYPREAKVQWKVDNALQSGNSQESVTEQDSKDSTYSLWSTLTLSKADYEKHKVYACEVTHQGLSSPVTKSFNRGEC
notes: AC_05293 backbone; also called double mutant I126S + Y180I; copies: 2 + 2 + 2
Take B5: in the assay with CD40 [1], the Kd came out at 1.1 nM, the koff came out at 0.00085 s⁻¹ and the kon is 740000 M⁻¹ s⁻¹. Besides, in the assay with EpCAM, the Kd came out at 6.9 nM, the koff stood at 0.0011 s⁻¹ and the on-rate constant (kon) worked out at 170000 M⁻¹ s⁻¹. Also, the “EC50 (read off the curve)” value with CD40 [2] was ~0.5 nM.

B6: 4116 (bispecific antibody)
heavy 1: not shown
heavy 2: EVQLLEQSGAELVRPGTSVKISCKASGYAFTNYWLGWVKERPGHGLEWIGDIFPGSGNIHYNEKFKGKATLTADKSSSTAYMQLSSLTFEDSAVYFCARLRNWDEPMDYWGQGTTVTVSSASTKGPSVFPLAPSSKSTSGGTAALGCLVKDYFPEPVTVSWNSGALTSGVHTFPAVLQSSGLYSLSSVVEVPSSSLGTQTYICNVNHKPSNTKVDKKVEPKSC
light: DIQMTQSPSSLSASVGDRVTITCRASQSISSYLNWYQEKPGKAPKLLIYAASSLQSGVPSRFSGSGSGTDFTLTISSLQPEDFATYYCQQYGRNPPTFGQGTKLEIKRTVAAPSVFIFPPSDEQLKSGTASVVCYLNNFYPREAKVQWKVDNALQSGNSQESVTEQDSKDSTYSLWSTLTLSKADYEKHKVYACEVTHQGLSSPVTKSFNRGEC
notes: also called single mutant I126T of AC_05293; copies: 2 + 2 + 2
B6: the “EC50 (read off the curve)” value with CD40 [3] is ~0.1 µg/mL.

B7: 4112 (bispecific antibody)
heavy 1: not shown
heavy 2: EVQLLEQSGAELVRPGTSVKISCKASGYAFTNYWLGWVKERPGHGLEWIGDIFPGSGNIHYNEKFKGKATLTADKSSSTAYMQLSSLTFEDSAVYFCARLRNWDEPMDYWGQGTTVTVSSASTKGPSVFPLAPSSKSTSGGTAALGCLVKDYFPEPVTVSWNSGALTSGVHTFPAVLQSSGLYSLSSVVEVPSSSLGTQTYICNVNHKPSNTKVDKKVEPKSC
light: DIQMTQSPSSLSASVGDRVTITCRASQSISSYLNWYQEKPGKAPKLLIYAASSLQSGVPSRFSGSGSGTDFTLTISSLQPEDFATYYCQQYGRNPPTFGQGTKLEIKRTVAAPSVFIFPPSDEQLKSGTASVVCYLNNFYPREAKVQWKVDNALQSGNSQESVTEQDSKDSTYSLWSTLTLSKADYEKHKVYACEVTHQGLSSPVTKSFNRGEC
notes: also called single mutant I126N of AC_05293; copies: 2 + 2 + 2
For B7, in the assay with CD40 [4], the “EC50 (read off the curve)” value was ~0.1 µg/mL.
